{"source": "paper PMC10530976", "origin": "cited, not measured here", "target": "Kv1.2 (UniProt P16389)", "sequence (P16389 whole entry)": "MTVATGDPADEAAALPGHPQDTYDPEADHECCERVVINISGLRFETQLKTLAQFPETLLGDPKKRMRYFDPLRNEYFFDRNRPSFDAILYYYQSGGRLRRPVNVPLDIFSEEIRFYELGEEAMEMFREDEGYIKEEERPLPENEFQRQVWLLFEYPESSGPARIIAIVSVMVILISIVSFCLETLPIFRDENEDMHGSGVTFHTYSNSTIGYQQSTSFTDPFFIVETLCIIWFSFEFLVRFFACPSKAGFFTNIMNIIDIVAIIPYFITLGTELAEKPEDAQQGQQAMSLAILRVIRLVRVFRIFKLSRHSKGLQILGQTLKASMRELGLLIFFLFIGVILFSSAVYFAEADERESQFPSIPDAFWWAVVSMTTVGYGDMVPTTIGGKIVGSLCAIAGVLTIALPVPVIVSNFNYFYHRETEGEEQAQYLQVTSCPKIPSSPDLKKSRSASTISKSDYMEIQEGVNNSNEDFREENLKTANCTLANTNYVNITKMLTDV", "data": [{"substance": "OSK2 (from UniProt P83244)", "values": [{"measurement": "Kd", "value": 5.97, "unit": "nM"}]}]}
